In experiment [1] the target is T1, TNFR2 on human K562 chronic myeloid leukemia cells and on primary human Treg cells (human, UniProt P20333 23-461).
T1 construct: whole, on cells; also called K562 cells
T1 sequence (looked up): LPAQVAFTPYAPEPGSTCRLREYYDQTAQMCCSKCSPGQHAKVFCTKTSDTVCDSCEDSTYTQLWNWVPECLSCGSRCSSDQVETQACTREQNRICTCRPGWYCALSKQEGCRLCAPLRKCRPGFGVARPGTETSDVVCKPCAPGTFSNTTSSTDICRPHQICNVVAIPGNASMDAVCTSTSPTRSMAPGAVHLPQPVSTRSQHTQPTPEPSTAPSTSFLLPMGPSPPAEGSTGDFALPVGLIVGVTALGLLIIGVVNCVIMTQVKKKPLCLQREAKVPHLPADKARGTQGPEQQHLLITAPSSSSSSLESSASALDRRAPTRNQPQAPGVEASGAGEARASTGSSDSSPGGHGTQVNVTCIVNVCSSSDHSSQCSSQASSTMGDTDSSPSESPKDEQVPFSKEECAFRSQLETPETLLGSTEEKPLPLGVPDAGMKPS
Description: flow cytometry on human K562 CML cells, MFI(FL2); unit taken from the axis Conc log(nM). As for the experimental part:
(§1) Assay steps: The mixture was centrifuged at 400 g for 5 min, and the cell medium was removed. K562 or Treg cells were resuspended in PBS. After counting, the cells were adjusted to a density of 2×10⁶/mL, and the cell suspension was added to a U-bottom 96-well plate at 100 μL/well. The test antibody was added, subjected to a three-fold gradient dilution, and left to stand on ice for 30 min. The mixture was centrifuged at 300 g for 5 min, and the supernatant was removed. The cells were washed once with PBS. The mixture was centrifuged at 300 g for 5 min, and PBS was removed. 100 μL of PE-anti-human Fc antibody (SOUTHERN BIOTECH, 2040-09) diluted at a ratio of 1:200 was added to each well. The mixture was incubated on ice for 30 min in the dark. The mixture was centrifuged at 400 g for 5 min, and the supernatant was removed. The cells were washed twice with PBS. The cells were resuspended in 100 μL of PBS and assayed by using a flow cytometer (BD, ACCURIC6 plus).

Experiment [2] addresses T1, TNFR2 on human K562 chronic myeloid …. Description: flow cytometry on primary human Treg cells, MFI(FL2); unit taken from the axis Conc log(nM). Here is the method: Tregs were prepared as follows: Human PBMC cells ([…], PB005F) were thawed, CD4⁺ CD25⁺ CD127^low cells were sorted by flow cytometry, and Treg cells were isolated. According to CD4⁺:anti-CD3/CD28 Beads=1:1, Dynabeads Human T-Activator CD3/CD28 (Gibco, 11131D) was added, followed by 10 ng/mL recombinant IL2, and the cells were stimulated for 7 days.
as §1
In general terms: In flow cytometry, cells or beads pass a laser one at a time.

Experiment [3] deals with T2, human TNFR2 overexpressed on CHO-S cells (CHOS-hTNFR2) (human, UniProt P20333 23-461).
T2 construct: also called hTNFR2 CHO-S; human TNFR2 molecule overexpressed on CHO-S cells
T2 sequence: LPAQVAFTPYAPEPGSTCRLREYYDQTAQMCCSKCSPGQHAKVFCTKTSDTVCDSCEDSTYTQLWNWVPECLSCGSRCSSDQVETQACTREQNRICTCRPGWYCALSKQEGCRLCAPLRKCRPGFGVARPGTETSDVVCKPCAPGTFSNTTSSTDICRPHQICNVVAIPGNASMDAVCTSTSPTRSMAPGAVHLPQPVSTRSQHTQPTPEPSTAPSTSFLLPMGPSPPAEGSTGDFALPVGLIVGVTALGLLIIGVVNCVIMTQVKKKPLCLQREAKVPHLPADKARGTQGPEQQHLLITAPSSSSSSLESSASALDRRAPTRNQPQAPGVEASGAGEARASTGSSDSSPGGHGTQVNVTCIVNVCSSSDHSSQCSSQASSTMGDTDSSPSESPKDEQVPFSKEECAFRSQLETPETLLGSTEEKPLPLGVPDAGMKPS
Description: flow cytometry on CHO-S cells overexpressing human TNFR2 (humanized antibodies), MFI-FL2A; unit taken from the axis Conc log(nM). As for the experimental part:
In the study, the binding of the antibodies, after being diluted in a gradient, to a stable CHO-S strain line overexpressing human TNFR2 on the surface was assayed by using a flow cytometer.
CHOS-hTNFR2 cells were counted and diluted to 2×10⁶ cells/mL, and added to a U-bottom 96-well plate at 100 μL/well. The mixture was centrifuged at 300 g for 5 min, and the cell medium was removed. Samples (the humanized antibodies hz3C4.7, hz69B1.5, hz69B1.6, hz69B1.11 and hz69B1.20, the chimeric antibody 69B1, and the positive control antibody OPI) (the antibodies were subjected to a three-fold dilution in PBS from the maximum antibody concentration of 300 nM) were added to the U-plate, and the cells were resuspended at 100 μL/well and left to stand on ice for 30 min. The suspension was centrifuged at 400 g for 5 min, and the supernatant was removed. The cells were washed twice with PBS. The mixture was centrifuged at 300 g for 5 min, and PBS was removed. 100 μL of anti-human Fc PE-labeled secondary antibody (SoutherBiotech; 2040-09) (diluted at a 1:100 ratio in PBS) was added to each well and incubated on ice for 30 min in the dark. The mixture was centrifuged at 400 g for 5 min, and the supernatant was removed. The cells were washed 3 times with PBS. The cells were resuspended in 200 μL of 1×PBS and assayed by FACS.

Results on 4 molecules are retold here after patent publication US20240026019A1 (Innovent, published 2024).

B1: humanized antibody hz69B1.5 (antibody, human IgG1, kappa, V domains shown)
VH: QIQLVQSGSELKKPGASVKVSCKASGYTFTDYSMNWVRQAPGQGLEWMGWLNTETGEPIYADDFKGRFVFSLDTSVSTAYLQISSLKAEDTAVYFCAREAIYYGTSYVLDYWGQGTLVTVSS
VL: DIVLTQSPASLAVSPGQRATITCRASESVEYYGTNFMQWYQQKPGQPPKLLIYSASNVESGVPARFSGSGSGTDFTLTINPVEANDTANYYCQQSRKDPSTFGQGTKLEIKR
Turning to B1, the results for the concentration for a half-maximal effect (EC50) in experiment [1], in experiment [2] and in experiment [3] were 0.0613 nM, 0.0239 nM and 0.424 nM, respectively.

B2: humanized antibody hz69B1.6 (antibody, human IgG1, kappa, V domains shown)
VH: QVQLVQSGAEVKKPGASVKVSCKASGYTFTDYSMNWVRQAPGQRLEWMGWLNTETGEPIYADDFKGRVTITRDTSASTAYMELSSLRSEDTAVYYCAREAIYYGTSYVLDYWGQGTLVTVSS
VL: DIVLTQSPASLAVSPGQRATITCRASESVEYYGTNFMQWYQQKPGQPPKLLIYSASNVESGVPARFSGSGSGTDFTLTINPVEANDTANYFCQQSRKDPSTFGQGTKLEIKR
Consider B2, for which, in experiment [3], the concentration for a half-maximal effect (EC50) (commonly the concentration that produces a half-maximal response) amounted to 0.357 nM. In other words, the sub-nanomolar range.

B3: humanized antibody hz69B1.11 (antibody, human IgG1, kappa, V domains shown)
VH: QVQLVQSGAEVKKPGASVKVSCKASGYTFTDYSMNWVRQAPGQRLEWMGWLNTETGEPIYADDFKGRVTITRDTSASTAYMELSSLRSEDTAVYYCAREAIYYGTSYVLDYWGQGTLVTVSS
VL: DIVLTQSPASLAVSPGQRATITCRASESVEYYGTNFMQWYQQKPGQPPKLLIYSASNVESGVPARFSGSGSGTDFTLTINPVEAQDTANYFCQQSRKDPSTFGQGTKLEIKR
For B3, the concentration for a half-maximal effect (EC50) worked out at 0.0446 nM in experiment [1], 0.0243 nM in experiment [2] and 0.36 nM in experiment [3].

B4: humanized antibody hz69B1.20 (antibody, human IgG1, kappa, V domains shown)
VH: QIQLVQSGSELKKPGASVKVSCKASGYTFTDYSMNWVRQAPGQGLEWMGWLNTETGEPIYADDFKGRFVFSLDTSVSTAYLQISSLKAEDTAVYFCAREAIYYGTSYVLDYWGQGTLVTVSS
VL: DIVLTQSPASLAVSPGQRATITCRASESVEYYGTNFMQWYQQKPGQPPKLLIYSASNVESGVPARFSGSGSGTDFTLTINPVEAQDTANYFCQQSRKDPSTFGQGTKLEIKR
For B4, the results for the EC50 in experiment [1], in experiment [2] and in experiment [3] were 0.0549 nM, 0.0299 nM and 0.42 nM, respectively.
